Key:
[1] = biological target: T1, Soluble dog FcRn, GST-tagged, with human beta2-microglobulin (dog; Schistosoma japonicum; human, UniProt P08515 1-218 = GST); assay: SPR, albumin over immobilized GST-FcRn, pH 6.0, 1:1 model
T1 construct: also called dFcRn
Protocol: (§1) SPR experiments were carried out using a Biacore 3000 instrument (GE Healthcare). Flow cells of CM5 sensor chips were coupled with soluble FcRn from one of the following species, human (shFcRn), rat (srFcRn), mouse (smFcRn), rhesus monkey (srmFcRn), dog (dFcRn) or pig (pFcRn) (˜900-2500 resonance units (RU)) using GE Healthcare amine coupling chemistry as per the manufacturer's instructions. The coupling was performed by injecting 2 or 10 μg/ml FcRn in 10 mM sodium acetate pH 5.0 (GE healthcare). Phosphate buffer (67 mM phosphate buffer, 0.15 M NaCl, 0.005% Tween 20) at pH 6.0) was used as running buffer and dilution buffer. Regeneration of the surfaces were done using injections of HBS-EP buffer (0.01 M HEPES, 0.15 M NaCl, 3 mM EDTA, 0.005% surfactant P20) at pH 7.4 (GE Healthcare). For determination of binding kinetics, serial dilutions of albumin (10-0.3 μM) were injected over immobilized receptors at a constant flow rate (50 μl/min) at 25° C. In all experiments, data were zero adjusted and the reference cell subtracted.

[2] = biological target: T2, Soluble pig FcRn, GST-tagged, with human beta2-microglobulin (Example 2) (pig; Schistosoma japonicum; human, UniProt P08515 1-218 = GST); assay: as above
T2 construct: also called pFcRn; spFcRn
Protocol: as §1

[3] = biological target: T3, Soluble rhesus monkey FcRn, GST-tagged, with human beta2-microglobulin (rhesus monkey; Schistosoma japonicum; …, UniProt P08515 1-218 = GST); assay: as above
T3 construct: also called srmFcRn; soluble rhesus macaque FcRn
Protocol: as §1

HSA K573P = biological target: T4, HSA K573P (human, UniProt P02768 25-609); assay: SPR, albumin over immobilized His-FcRn, pH 5.5, 1:1 Langmuir
T4 construct: Variant of mature HSA
T4 sequence (P02768 25-609 K597P): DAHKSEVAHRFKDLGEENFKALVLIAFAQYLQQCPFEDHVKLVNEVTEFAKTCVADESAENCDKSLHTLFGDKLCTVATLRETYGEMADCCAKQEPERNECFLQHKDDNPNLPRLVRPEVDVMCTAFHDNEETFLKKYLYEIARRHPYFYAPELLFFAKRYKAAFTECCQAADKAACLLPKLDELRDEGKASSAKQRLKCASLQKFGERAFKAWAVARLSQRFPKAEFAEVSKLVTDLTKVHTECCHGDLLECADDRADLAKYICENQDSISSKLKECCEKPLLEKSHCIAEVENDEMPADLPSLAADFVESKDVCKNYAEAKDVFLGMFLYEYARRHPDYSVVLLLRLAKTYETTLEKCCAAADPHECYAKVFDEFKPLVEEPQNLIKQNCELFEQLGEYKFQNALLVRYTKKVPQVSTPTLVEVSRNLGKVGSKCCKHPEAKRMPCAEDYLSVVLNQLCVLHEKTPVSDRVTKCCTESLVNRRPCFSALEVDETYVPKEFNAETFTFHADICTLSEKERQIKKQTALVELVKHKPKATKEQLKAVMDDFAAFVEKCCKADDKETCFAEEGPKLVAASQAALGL
Protocol: as §1
(§2) The SPR assay was conducted with the following variations to the assay described in the Materials and Method section:
(§3) The soluble FcRn receptors were synthesized by GeneArt and expressed in HEK cells. The soluble FcRn contained a HIS-tag on the C-terminal of the Beta-chain instead of a GST on the heavy chain and the beta-chain used was the native beta-chain of the animal (see Materials and Method section for the corresponding sequences). The soluble FcRn was purified by a HIS trap column followed by an additional purification using an IgG column. The soluble FcRn receptor was diluted to 20 μg/mL. The phosphate buffer used as running buffer in the SPR assay was at pH 5.5 instead of pH 6.0. […] 1:1 Langmuir or Steady state model was used.

[4] = biological target: T5, N-terminally c-myc tagged albumin variant K573P (human, UniProt P02768 25-609); assay: as above
T5 construct: Substitution numbered on mature HSA, not on the tagged chain; also called c-myc-K573P
T5 sequence (P02768 other isoform, or with tags, fused parts or gaps K573P K573P): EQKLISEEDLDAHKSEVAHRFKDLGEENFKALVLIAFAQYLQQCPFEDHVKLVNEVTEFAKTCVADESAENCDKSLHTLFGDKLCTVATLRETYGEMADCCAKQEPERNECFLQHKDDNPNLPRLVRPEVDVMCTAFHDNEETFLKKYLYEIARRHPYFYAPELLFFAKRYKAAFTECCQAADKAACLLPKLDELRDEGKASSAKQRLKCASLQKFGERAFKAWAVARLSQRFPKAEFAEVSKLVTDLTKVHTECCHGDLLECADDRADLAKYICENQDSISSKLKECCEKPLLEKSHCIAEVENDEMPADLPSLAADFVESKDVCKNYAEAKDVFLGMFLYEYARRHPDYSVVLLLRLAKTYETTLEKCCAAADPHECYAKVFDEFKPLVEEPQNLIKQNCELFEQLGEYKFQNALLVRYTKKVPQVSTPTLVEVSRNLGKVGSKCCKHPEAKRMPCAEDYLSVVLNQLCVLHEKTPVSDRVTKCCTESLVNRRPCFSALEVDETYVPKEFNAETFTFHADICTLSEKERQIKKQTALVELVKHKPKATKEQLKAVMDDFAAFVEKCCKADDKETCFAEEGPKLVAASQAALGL
Protocol: as §1, §2, §3

B1: Wild type rhesus monkey serum albumin (ligand)
chain: DTHKSEVAHRFKDLGEEHFKGLVLVAFSQYLQQCPFEEHVKLVNEVTEFAKTCVADESAENCDKSLHTLFGDKLCTVATLRETYGEMADCCAKQEPERNECFLQHKDDNPNLPPLVRPEVDVMCTAFHDNEATFLKKYLYEVARRHPYFYAPELLFFAARYKAAFAECCQAADKAACLLPKLDELRDEGKASSAKQRLKCASLQKFGDRAFKAWAVARLSQKFPKAEFAEVSKLVTDLTKVHTECCHGDLLECADDRADLAKYMCENQDSISSKLKECCDKPLLEKSHCLAEVENDEMPADLPSLAADYVESKDVCKNYAEAKDVFLGMFLYEYARRHPDYSVMLLLRLAKAYEATLEKCCAAADPHECYAKVFDEFQPLVEEPQNLVKQNCELFEQLGEYKFQNALLVRYTKKVPQVSTPTLVEVSRNLGKVGAKCCKLPEAKRMPCAEDYLSVVLNRLCVLHEKTPVSEKVTKCCTESLVNRRPCFSALELDEAYVPKAFNAETFTFHADMCTLSEKEKQVKKQTALVELVKHKPKATKEQLKGVMDNFAAFVEKCCKADDKEACFAEEGPKFVAASQAALA
notes: also called rmSA; rmSA Wt
- Kd [1]: 1540 nM
- koff [1]: 0.02 s⁻¹
- kon [1]: 13000 M⁻¹ s⁻¹
- Kd [2]: 1200 nM
- koff [2]: 0.012 s⁻¹
- kon [2]: 10000 M⁻¹ s⁻¹
- Kd [3]: 2400 nM
- koff [3]: 0.013 s⁻¹
- kon [3]: 5300 M⁻¹ s⁻¹

B2: Soluble guinea pig FcRn with guinea pig beta2-microglobulin, HIS-tagged (receptor)
chain: AENHLSLLYHLTAVSSPATGSPAFWVSGWLGPQQYLSYSSLRREAEPCGAWVWETQVSWYWEMETTDLKNKESLFLEALKALGGKGPYTLQGILGCELSPDNSSVPTALFALNGEDFMEFHPENGSWTGDWPEALSISKQWEKKAEVVSKEKTFLLSSCPQRLLDHLERSRRNLEWKEPPSMRLKARPGDAGFSVLTCSAFSFYPPELQLRFLHNGLAAGTGEGGFGPNGDGSFHAWSSLTVQRGDEHNYRCLVQHAGLPQPLSVELESPAGSS
b2m: VLHAPRVQVYSRHPAENGKQNFINCYVSGFHPPQIEVELLKNGKKIDNVEMSDLSFSKDWTFYLLVHAAFTPNDSDEYSCRVSHITLSEPKIVKWDPNK
notes: Synthesized by GeneArt, expressed in HEK cells; also called gpFcRn; gpFcRN; not shown: HIS-tag on the C-terminal of the beta-chain
- Kd (HSA K573P): 190000 nM
- koff (HSA K573P): 0.297 s⁻¹
- kon (HSA K573P): 1500 M⁻¹ s⁻¹
- Kd [4]: 360000 nM
- koff [4]: 0.181 s⁻¹
- kon [4]: 500 M⁻¹ s⁻¹

B3: Wild type dog serum albumin (ligand)
chain: EAYKSEIAHRYNDLGEEHFRGLVLVAFSQYLQQCPFEDHVKLAKEVTEFAKACAAEESGANCDKSLHTLFGDKLCTVASLRDKYGDMADCCEKQEPDRNECFLAHKDDNPGFPPLVAPEPDALCAAFQDNEQLFLGKYLYEIARRHPYFYAPELLYYAQQYKGVFAECCQAADKAACLGPKIEALREKVLLSSAKERFKCASLQKFGDRAFKAWSVARLSQRFPKADFAEISKVVTDLTKVHKECCHGDLLECADDRADLAKYMCENQDSISTKLKECCDKPVLEKSQCLAEVERDELPGDLPSLAADFVEDKEVCKNYQEAKDVFLGTFLYEYARRHPEYSVSLLLRLAKEYEATLEKCCATDDPPTCYAKVLDEFKPLVDEPQNLVKTNCELFEKLGEYGFQNALLVRYTKKAPQVSTPTLVEVSRKLGKVGTKCCKKPESERMSCAEDFLSVVLNRLCVLHEKTPVSERVTKCCSESLVNRRPCFSGLEVDETYVPKEFNAETFTFHADLCTLPEAEKQVKKQTALVELLKHKPKATDEQLKTVMGDFGAFVEKCCAAENKEGCFSEEGPKLVAAAQAALV
notes: also called DSA
- Kd [1]: 280 nM
- koff [1]: 0.0034 s⁻¹
- kon [1]: 12000 M⁻¹ s⁻¹
- Kd [2]: 1400 nM
- koff [2]: 0.013 s⁻¹
- kon [2]: 9200 M⁻¹ s⁻¹

From US20160033523A1 (NOVOZYMES BIOPHARMA DK A S, published 2016)
